This note sets out measurements from US20140329320A1 (OBSCHESTVO S OGRANICHENNOI OTVETSTVENNOSTYU TEKHNOPHARMA, published 2014).

This assay has as its target T1, chicken ovalbumin protein (chicken, UniProt P01012 2-386).
T1 construct: Immobilized in wells as negative control of the MIF assay; also called nonspecific protein; negative control
T1 sequence: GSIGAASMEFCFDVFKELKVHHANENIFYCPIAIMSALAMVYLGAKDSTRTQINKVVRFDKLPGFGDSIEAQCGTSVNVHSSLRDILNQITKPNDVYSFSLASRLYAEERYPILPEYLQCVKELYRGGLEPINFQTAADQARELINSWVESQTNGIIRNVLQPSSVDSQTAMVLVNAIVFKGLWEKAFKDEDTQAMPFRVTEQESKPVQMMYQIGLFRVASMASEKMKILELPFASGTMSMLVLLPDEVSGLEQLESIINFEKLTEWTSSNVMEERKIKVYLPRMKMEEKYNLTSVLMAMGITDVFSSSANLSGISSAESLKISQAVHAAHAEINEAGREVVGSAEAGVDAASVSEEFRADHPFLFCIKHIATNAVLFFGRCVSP
The assay can be described thus: microimmunofluorescence (MIF) on immobilized antigen, anti-HA and FITC secondary detection.

B1: aCt1 nanoantibody (VHH)
VHH: QVQLVESGGGSVQAGGSLRLSCTTSHYVASNSCMAWFRQAPGKKREGVASISRRADITFYADSVKERFVISRDNSERTLYLQMNSLKPEDTAMYYCAADLSYCGLTEEGYNHWGQGTQVTVSS
notes: also called single domain nanoantibody aCt1
B1: the binding result is “no binding (tested: 10 µ/ml)”.

B2: aCt2 nanoantibody (VHH)
VHH: QVQLVESGGGSVQAGGSLRLHCASSGYVEARILMGWFRQAPGKEREGVAAIYIGDGTTDYGDSVKGRFTVSQDGAKNAIYLHMYDVKPEDAATYYCAAGIMPWYRTWSGRLNVGDFDSWGQGTQVTVSS
notes: also called single domain nanoantibody aCt2
Turning to B2, the binding result is given as “no binding (tested: 10 µ/ml)”.
